“Also recorded” adds a separate entry of the source. Residues, ends and D or L forms follow the SMILES beside them.
Tests used:
[1] = test system: developing rat cortical neurons; assay: Incubation of developing rat cortical neurons with peptide (toxicity, neuron number); conditions: 1 μM peptide, versus control developing rat cortical neurons (FIG. 4)
[2] = biological target: T1, SH3 domain of IB1 (MKK7 binding) (Homo sapiens, UniProt Q9UQF2); assay: Pull-down of 35S-labelled MKK7 on GST-SH3 domain of IB1; conditions: GST-SH3 domain of IB1, 35S-labelled MKK7 (FIG. 2)
T1 construct: the SH3 domains of IB1 and IB2 were subcloned using PCR into the pGEX-4T1 vector in frame with the GST; GST (N); made in house; host or cells: E. coli
T1 sequence (Q9UQF2 488-549 limits assumed): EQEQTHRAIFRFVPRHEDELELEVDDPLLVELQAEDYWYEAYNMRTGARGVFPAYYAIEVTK
Protocol: (§1) Effects of the αSH3 peptide on JNK biological activities were then studied. […] In the pull-down experiments, the SH3 domains of IB1 and IB2 were subcloned using PCR into the pGEX-4T1 vector in frame with the GST (Pharmacia). The recombinant proteins were produced in E. coli. Purification was performed in native conditions using a glutathione-agarose column (Pharmacia). ^35S-labelled MKK7 was then used in classical pull-down experiments.

[3] = biological target: T2, SH3 domain of IB2 (MKK7 binding) (Homo sapiens, UniProt Q13387); assay: Pull-down of 35S-labelled MKK7 on GST-SH3 domain of IB2; conditions: GST-SH3 domain of IB2, 35S-labelled MKK7 (FIG. 2)
T2 construct: the SH3 domains of IB1 and IB2 were subcloned using PCR into the pGEX-4T1 vector in frame with the GST; GST (N); made in house; host or cells: E. coli
T2 sequence (Q13387 604-665 limits assumed): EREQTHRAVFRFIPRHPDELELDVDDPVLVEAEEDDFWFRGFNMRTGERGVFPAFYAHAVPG
Protocol: as §1

| Compound | toxicity on developing neurons (residual necrotic bodies) [1] | blocking of the binding of MKK7 to IB1 [2] | blocking of the binding of MKK7 to IB2 [3] |
| --- | --- | --- | --- |
| CSCC[C@H](NC(=O)CNC(=O)[C@@H](NC(=O)[C@H](CO)NC(=O)[C@@H](NC(=O)[C@H](CO)NC(=O)[C@H](CCCNC(=N)N)NC(=O)[C@H](CCCNC(=N)N)NC(=O)[C@H](CCCNC(=N)N)NC(=O)[C@H](CCC(N)=O)NC(=O)[C@H](CCCNC(=N)N)NC(=O)[C@H](CCCNC(=N)N)NC(=O)[C@H](CCCCN)NC(=O)[C@H](CCCCN)NC(=O)[C@@H](N)CCCNC(=N)N)C(C)C)C(C)C)C(=O)N1CCC[C@H]1C(=O)N1CCC[C@H]1C(=O)N[C@@H](CO)C(=O)N1CCC[C@H]1C(=O)N[C@@H](CCCNC(=N)N)C(=O)N1CCC[C@H]1C(=O)O [TAT-αSH3] (H-RKKRRQRRRSVSVGMPPSPRP-OH) | lacked residual necrotic bodies; also recorded: not toxic | – | – |
| αSH3: consensus SH3 binding peptide, 12 aa, SVSVGMPPSP RP (SVSVGMPPSPRP) | – | efficiently blocks | efficiently blocks |

— patent publication US7943574B2, “Cell-permeable peptide inhibitors of the JNK signal transduction pathway” (Xigen SA, priority 2002, dated 2011)
